Laboratory results as given in publication PMC3030945 (The Journal of Membrane Biology, 2010).

How the values were obtained:
[1] = format: physicochemical; conditions: all lipid mixtures; van't Hoff analysis of CD partitioning data
[2] = Isothermal titration calorimetry: enthalpy of melittin partitioning into LUVs; format: physicochemical; conditions: for −TΔS: from ΔG = ΔH − TΔS, ± joint confidence limits
[3] = CD titration of melittin with SUVs: free energy of partitioning; format: physicochemical; conditions: 5 mM lipid, estimated from measured partitioning free energy ΔG
[4] = Isothermal titration calorimetry: enthalpy of melittin partitioning into SUVs; format: physicochemical; conditions: POPC SUVs, 25°C; ITC, 10 μl of 100 μM melittin into 5 mM lipid
[5] = CD spectroscopy: helical content of membrane-bound melittin; format: physicochemical; conditions: for peptide helical fraction f α: 25°C, CD molar ellipticity at 222 nm
[6] = Hydrophobic-effect free energy ΔG hϕ calculated from measured heat capacity; format: physicochemical; conditions: for hydrophobic free energy ΔG hϕ: calculated from measured heat capacity
[7] = cited from earlier work
[8] = various methods, mole-fraction partition coefficients, ref Beschiaschvili and Baeuerle 1991, Kuchinka and Seelig 1989, Ladokhin et al. 2000, Ladokhin and White 1999, Schwarz and Beschiaschvili 1989, Vogel 1981; cited from earlier work

In the case of melittin, the heat capacity change [1] is reported as “approximately −0.5 kcal mol^−1 K^−1”, the “change of heat capacity” value ([2]; LUVs at different lipid content, slope of enthalpy vs temperature (Fig. 4b)) is reported as “about −0.5 kcal/molK” and the “−TΔS” value ([2]; POPC 50%:POPG 50% LUVs, 25°C) is reported as −2.8 (±1) kcal mol^−1. The “−TΔS” value ([2]; POPC 50%:POPG 50% LUVs, 40°C) was 3.08 (±1) kcal mol^−1, the “−TΔS” value ([2]; POPC 50%:POPG 50% LUVs, 50°C) was 8.73 (±1.1) kcal mol^−1 and the “−TΔS” value ([2]; POPC 50%:POPG 50% LUVs, 60°C) was 16.99 (±1.5) kcal mol^−1. For the same substance, the “−TΔS” value ([2]; POPC 75%:POPG 25% LUVs, 25°C) was −4.42 (±0.6) kcal mol^−1, the “−TΔS” value ([2]; POPC 75%:POPG 25% LUVs, 40°C) was 3.24 (±0.8) kcal mol^−1 and the “−TΔS” value ([2]; POPC 75%:POPG 25% LUVs, 50°C) was 8.32 (±0.4) kcal mol^−1. For the same substance, the “−TΔS” value ([2]; POPC 75%:POPG 25% LUVs, 60°C) was 15.06 (±1.1) kcal mol^−1, the “−TΔS” value ([2]; POPC 90%:POPG 10% LUVs, 25°C) was −5.9 (±1.5) kcal mol^−1 and the “−TΔS” value ([2]; POPC 90%:POPG 10% LUVs, 40°C) was −2.25 (±0.9) kcal mol^−1. The “−TΔS” value ([2]; POPC 90%:POPG 10% LUVs, 50°C) was 3.3 (±1) kcal mol^−1, the “−TΔS” value ([2]; POPC 90%:POPG 10% LUVs, 60°C) was 5.73 (±1.1) kcal mol^−1 and the “−TΔS” value ([2]; POPC 100%:POPG 0% LUVs, 40°C) was −12.3 (±1.6) kcal mol^−1. For the same substance, the “−TΔS” value ([2]; POPC 100%:POPG 0% LUVs, 50°C) was −6.2 (±1.4) kcal mol^−1, the “−TΔS” value ([2]; POPC 100%:POPG 0% LUVs, 60°C) was −3.2 (±1.3) kcal mol^−1 and the “heat capacity associated with partitioning” value ([2]; all lipid mixtures (POPC:POPG 0–50% POPG), independent of lipid composition) was “about −0.5 kcal mol^−1 K^−1”. The “fraction of melittin bound” value [3] was 95%, the “enthalpy change, before corrections” value [4] was “≈ −10 kcal mol^−1” and the “fraction of peptide bound” value ([5]; POPC50:POPG50, 5°C, CD) was “≈ 0.57”. The “peptide helical fraction f α” value ([5]; POPC50:POPG50 LUVs) was 0.71, the “peptide helical fraction f α” value ([5]; POPC75:POPG25 LUVs) was 0.73 and the “peptide helical fraction f α” value ([5]; POPC90:POPG10 LUVs) was 0.71. For the same substance, the “peptide helical fraction f α” value ([5]; POPC LUVs, Luo and Baldwin formula) was 0.71, the α-helical content ([5]; melittin bound to a lipid membrane at 25°C, CD) was ~ 70% and the “helical fraction of peptide (or the fraction of peptide bound)” value ([5]; pure POPC, 5°C, CD) was “≈ 0.57”. For the same substance, the “fraction of peptide bound” value ([5]; pure POPC, 60°C, CD) was “≈ 0.63”, the “T h (temperature at which ΔH hϕ has a bulk-phase transfer value of 0)” value ([6]; POPC) was 326 K and the “T s (temperature at which ΔS hϕ has a bulk-phase transfer value of 0)” value ([6]; POPC) was 336 K. For the same substance, the T h ([6]; POPC50:POPG50) was 292 K, the T s ([6]; POPC50:POPG50) was 305 K and the “hydrophobic free energy ΔG hϕ” value ([6]; POPC50:POPG50, 25°C) was −7.50 (±0.52) kcal mol^−1. The T h ([6]; POPC75:POPG25) was 294 K, the T s ([6]; POPC75:POPG25) was 306 K and the “hydrophobic free energy ΔG hϕ” value ([6]; POPC75:POPG25, 25°C) was −6.87 (±0.30) kcal mol^−1. The T h ([6]; POPC90:POPG10) was 296 K, the T s ([6]; POPC90:POPG10) was 316 K and the “hydrophobic free energy ΔG hϕ” value ([6]; POPC90:POPG10, 25°C) was −6.68 (±0.22) kcal mol^−1. For the same substance, the “contribution of the hydrophobic effect to the total free energy” value ([6]; POPC, 25°C) was “approximately 79%”, the “hydrophobic free energy ΔG hϕ” value ([6]; POPC, 25°C) was −4.88 (±2.83) kcal mol^−1 and the “electrical valence (formal valence)” value ([7]; formal peptide charge as stated, no reference given) was 5–6. The effective charge ([7]; literature value, ref Beschiaschvili and Baeuerle 1991) was “≈ 2” and the “free energy of partitioning of unfolded melittin into the bilayer interface of POPC vesicles” value [8] was −6 to −7 kcal mol^−1.
